Measured values as given in article PMC6923934, “The peptide transporter 1a of the zebrafish Danio rerio, an emerging model in nutrigenomics and nutrition research: molecular characterization, functional properties, and expression analysis” (Genes & Nutrition, 2019).

B1: zebrafish PepT1b (Slc15a1b) (Danio rerio) (protein)
chain: MADKEGHKQKKERASCFGYPVSIFFIVVNEFCERFSYYGMKAVLVLYFKYFIGWDDDLSTTIYHTFVALCYLTPIMGAIIADSWLGKFKTIVYLSIVYTIGQVIMAISAIHDITDANRDGKPDNKTLHISLSMLGLILIALGTGGIKPCVAAFGGDQFEDHQEKQRSTFFSIFYLSINAGSLLSTLITPILRSQECGIYAKQSCYPLAFGVPAALMVVALIVFVIGHKMYIMESPKGNILLQVINCIGFALNNRFRHRGKQYPKREHWMDWAEEKYDKLLIAQVKMVVKVLFLYIPLPMFWALFDQQGSRWTIQATTMDGNFGGFVIQPDQMQIVNPILIVIMVPIMDSAIYPLIKLCRINFTPLRKMTVGMVLAALAFVAAALLQLQIDETMPKFPSTSQTQLKFLNVESTSLPVVVEGQDQFMVPGFNASSEYLTLDKENVTISAGGVNDTAFLKTGTRHTVLMNAAGMRNTLDDLTEKPEQGLNAIRFVNGWENRLNVSVKSDNVHADPLDASVYLLVPHGKVNFTIFDGGDGKCHYIMQLGFGSTYTVLIPSTFAFGQTCSESFEAVQDMEPNRIHMAWQVIQYFLLTCGEVVYSVTGLDFSYSQAPSNMKSVLQAGWLLTVAVGNIIVLIVAEAGSLPDQWAEYLLFASLLVAVSIIFAIMAYFYTYIDPNEIEAKFKELEPEDKKRKEMQMTAKDNMAYVHNENTNIKQTKI
notes: cRNA-expressed in Xenopus laevis oocytes; construct not described here (previously cloned zebrafish PepT1)
B2: zebrafish PepT1a (Slc15a1a) (Danio rerio) (protein)
chain: MPDSKMDETKKKKKKTAECCGYPISIFFIVVNEFCERFSYYGMRAVLVLYFRYFLLWDDDLATSIYHAFVALCYLTPILGAIIADSWLGKFKTIIYLSIVYAVGQVVMAVSTIHDITDANRDGTPDNFTLHIALSMLGLVLIALGTGGIKPCVAAFGGDQFQEHQSRQLNTFFSVFYLCINAGSLLSTLITPVLRAQECGIHTQQQCYPLAFGVPAALMVVSLVVFIAGSGMYTKTAPEGNIMGSVCKCIWFALNNRFRHRSDIYPKREHWMDWAEEKYDKLLIAQIKMVLKVLFLYIPLPMFWTLFDQKGSRWTLQATTMTGDFGGFVLQPDQMQTVNPILILTLVPIMDRIIFPLIKKCGLNFSPLKRMTVGMLFAATAFIAAALVQMEIDKTLPNFPSSSESQLKVVNMHSESLIVTVPSQEPLLIGSFESSPDYITFDQQDIRLAFNTTPEINKDLSLIKGSRQTLIIPSEPAEMYLKEDIKSKPKEGKNAVRFVNGWTAYLNITNLESSLQPSETSNYTLVSQGMRKFTLTDGIQSCEFSRKFGFGSSYTFLIPSDLFSTDCESIKEIEDMQPNSVHMALQIPQYFLITTGEVMFSVTGLQFSYSQAPKNMKSVLQAGWLCTNAVGNIIVLIVAELGKLPKQWAEYVLFASLLVAVSIIFSIMAYFYTYIDPAEIEAEILKQQETDPDKKKKKETLEMEEKENEQEIKQTKI
notes: full-length cDNA cloned from zebrafish intestine, 717 residues, pSPORT1, cRNA in Xenopus laevis oocytes; untagged

Assays:
[1] = substrate: NCC(=O)N[C@@H](CCC(N)=O)C(=O)O; test: two-electrode voltage clamp, transport current in Xenopus oocytes; assay type: cell-based, Danio rerio; details: pH 6.5, -60 mV, NaCl buffer, proton-coupled
Source text: two-electrode voltage clamp, transport current in Xenopus oocytes on zebrafish PepT1b (Slc15a1b)

[2] = substrate: NCC(=O)N[C@@H](CCC(N)=O)C(=O)O; test: as above; assay type: cell-based, Danio rerio; details: pH 6.5, -60 mV, NaCl buffer, proton-coupled; remark: listed apart in the source
Source text: two-electrode voltage clamp, transport current in Xenopus oocytes on zebrafish PepT1a (Slc15a1a)

Protein	K0.5 [1]	K0.5 [2]
B1	0.13 ± 0.02 mmol/L	–
B2	–	0.24 ± 0.07 mmol/L
